US11739161B2, “Methods for treating and diagnosing prostate cancer” (Tufts Medical Center, Inc., priority 2017, dated 2023)

What was measured:
Format in all cases: cell-based, human
[1] = system: AXL phosphorylation in PC-3 cells; assay: AXL phosphorylation (phospho-RTK array, immunoblot); details: serum-starved PC-3, 1 μg/ml RNASE4
Experimental: FIGS. 11A-F. RNASE4 induces PC-3 cell proliferation and phosphorylation of AKT and S6. (A) Exogenous RNASE4 (1 μg/ml) stimulates PC-3 cells proliferation in the presence of 2% FBS. Cell numbers were determined by MTT assay. (B) Time course of AKT and S6 phosphorylation of serum-starved PC-3 cells by RNASE4 (1 μg/ml). Left panels, immunoblots; right panels, quantification of p-AKT and p-S6 normalized to total AKT and S6 by Image J. (C) Effect of AKT inhibitor MK-2206, PI3K inhibitors LY294002 and Wortmannin, and mTOR inhibitor Rapamycin on RNASE4-induced PC-3 cell proliferation. Cells were pre-incubated with the inhibitors at the indicated concentrations for 1 hour prior to be stimulated by RNASE4 (1 μg/ml) for 3 days. Cell numbers were determined by MTT assay. (D) Human phospho-RTK antibody array analysis of starved PC-3 cells treated with or without 1 μg/ml RNASE4 for 5 minutes. (E) Time course of AXL phosphorylation stimulated by RNASE4 in PC-3 cells. […] Cell lysates were analyzed for total AXL and phopho-AXL by immunoblotting. Left panels, immunoblots; right panel, quantification phospho-AXL normalized to total AXL by Image J analysis. […] Cell numbers were determined by MTT assay. […]
Human Phospho-RTK Arrays were purchased from R&D Systems. […] Protein concentrations were quantified by Bradford Assay and 1.5 mg cell lysate was used per array. Pixel densities on were analyzed by ImageJ. […]

[2] = system: AKT and S6 phosphorylation in PC-3 cells; assay: RNASE4-induced phosphorylation of AKT and S6 (immunoblot); details: serum-starved PC-3, RNASE4 1 μg/ml, time course
Experimental: FIGS. 11A-F. RNASE4 induces PC-3 cell proliferation and phosphorylation of AKT and S6. (A) Exogenous RNASE4 (1 μg/ml) stimulates PC-3 cells proliferation in the presence of 2% FBS. Cell numbers were determined by MTT assay. (B) Time course of AKT and S6 phosphorylation of serum-starved PC-3 cells by RNASE4 (1 μg/ml). Left panels, immunoblots; right panels, quantification of p-AKT and p-S6 normalized to total AKT and S6 by Image J. (C) Effect of AKT inhibitor MK-2206, PI3K inhibitors LY294002 and Wortmannin, and mTOR inhibitor Rapamycin on RNASE4-induced PC-3 cell proliferation. Cells were pre-incubated with the inhibitors at the indicated concentrations for 1 hour prior to be stimulated by RNASE4 (1 μg/ml) for 3 days. Cell numbers were determined by MTT assay. (D) Human phospho-RTK antibody array analysis of starved PC-3 cells treated with or without 1 μg/ml RNASE4 for 5 minutes. (E) Time course of AXL phosphorylation stimulated by RNASE4 in PC-3 cells. Serum-starved PC-3 cells were treated with 1 μg/ml RNASE4 for different time. Cell lysates were analyzed for total AXL and phopho-AXL by immunoblotting. Left panels, immunoblots; right panel, quantification phospho-AXL normalized to total AXL by Image J analysis. (F) Effect of AXL inhibitor R428 on RNASE4-induced PC-3 cell proliferation. […] Cell numbers were determined by MTT assay. […]

[3] = system: LNCaP cells; assay: RNASE4 knockdown, colony formation in soft agar; details: exogenous RNASE4 1 μg/ml, 14 days
From the text: FIGS. 15A-D. RNASE4 knockdown inhibits LNCaP cell proliferation in vitro and colony formation in soft agar. (A) Immunoblot analysis of RNASE4 in LNCaP cells stably transfected with shControl, shRNASE4-1, and shRNASE4-2. (B) qRT-PCR analysis of RNASE4 mRNA normalized to GAPDH in LNCaP cells stably transfected with shControl, shRNASE4-1, and shRNASE4-2. (C) Effect of RNASE4 knockdown on LNCaP cell proliferation. Cell numbers were counted by Coulter counter. Exogenous RNASE4, when presented, was at the concentration of 1 μg/ml. Data shown are from a representative experiment in triplicates of 3 independent experiments. (D) Effects of RNASE4 knockdown on colonies formation and growth of LNCaP cells in soft agar. The same numbers of control and RNASE4 knockdown cells were seeded in soft agar, and grown in the absence or presence of 1 μg/ml of RNASE4 for 14 days. Colonies were counted and size measured on a Nikon Eclipse ti microscope. Top panels, representative images of colonies; scale bars=100 μm. Bottom panels, quantification of LMCaP cell colonies and sizes in soft agar. Data shown are means±SEM of five randomly selected fields per dish from a representative experiment. **P≤0.01 and ***P≤0.001, by two-tailed Student's t test.
Lentiviral mediated shRNA system (pGIPZ, Open Biosystems) was used to generate control and RNASE4 knockdown cell lines. […]

[4] = system: PC-3 cells; assay: RNASE4-induced cell proliferation (MTT assay); details: exogenous RNASE4 1 μg/ml, PC-3, 2% FBS
Experimental: FIGS. 11A-F. RNASE4 induces PC-3 cell proliferation and phosphorylation of AKT and S6. (A) Exogenous RNASE4 (1 μg/ml) stimulates PC-3 cells proliferation in the presence of 2% FBS. Cell numbers were determined by MTT assay. (B) Time course of AKT and S6 phosphorylation of serum-starved PC-3 cells by RNASE4 (1 μg/ml). Left panels, immunoblots; right panels, quantification of p-AKT and p-S6 normalized to total AKT and S6 by Image J. (C) Effect of AKT inhibitor MK-2206, PI3K inhibitors LY294002 and Wortmannin, and mTOR inhibitor Rapamycin on RNASE4-induced PC-3 cell proliferation. Cells were pre-incubated with the inhibitors at the indicated concentrations for 1 hour prior to be stimulated by RNASE4 (1 μg/ml) for 3 days. Cell numbers were determined by MTT assay. (D) Human phospho-RTK antibody array analysis of starved PC-3 cells treated with or without 1 μg/ml RNASE4 for 5 minutes. (E) Time course of AXL phosphorylation stimulated by RNASE4 in PC-3 cells. Serum-starved PC-3 cells were treated with 1 μg/ml RNASE4 for different time. Cell lysates were analyzed for total AXL and phopho-AXL by immunoblotting. Left panels, immunoblots; right panel, quantification phospho-AXL normalized to total AXL by Image J analysis. (F) Effect of AXL inhibitor R428 on RNASE4-induced PC-3 cell proliferation. Serum-starved PC-3 cells were incubated with 1 or 3 μM R428 for 3 hours and then stimulated by 1 μg/ml of RNASE4 for 3 days. Cell numbers were determined by MTT assay. Data shown are means±SEM of a representative experiments in triplicates of 3 independent repeats. **P≤0.01 and ***P≤0.001, by unpaired two-tailed Student's t test.

B1: RNASE4: recombinant human RNASE4 protein from pET11 expression in E. coli, purified by reversed-phase HPLC; added exogenously (protein, UniProt P34096 29-147, looked up)
Ribonuclease 4: QDGMYQRFLRQHVHPEETGGSDRYCNLMMQRRKMTLYHCKRFNTFIHEDIWNIRSICSTTNIQCKNGKMNCHEGVVKVTDCRDTGSSRAPNCRYRAIASTRRVVIACEGNPQVPVHFDG
- phosphorylation of AXL [1]: induced phosphorylation
- activation (phosphorylation) of AKT and S6 [2]: rapidly and continuously activated
- rescue of the effect of RNASE4 knockdown on colony formation [3]: able to rescue
- cell proliferation [4]: stimulates
